Molecular target: HSF1β-EGFP (heat shock factor 1, short β splicing isoform, fused to EGFP) (mouse)
Sequence (P38532 whole entry, the tested form may be a part, canonical isoform): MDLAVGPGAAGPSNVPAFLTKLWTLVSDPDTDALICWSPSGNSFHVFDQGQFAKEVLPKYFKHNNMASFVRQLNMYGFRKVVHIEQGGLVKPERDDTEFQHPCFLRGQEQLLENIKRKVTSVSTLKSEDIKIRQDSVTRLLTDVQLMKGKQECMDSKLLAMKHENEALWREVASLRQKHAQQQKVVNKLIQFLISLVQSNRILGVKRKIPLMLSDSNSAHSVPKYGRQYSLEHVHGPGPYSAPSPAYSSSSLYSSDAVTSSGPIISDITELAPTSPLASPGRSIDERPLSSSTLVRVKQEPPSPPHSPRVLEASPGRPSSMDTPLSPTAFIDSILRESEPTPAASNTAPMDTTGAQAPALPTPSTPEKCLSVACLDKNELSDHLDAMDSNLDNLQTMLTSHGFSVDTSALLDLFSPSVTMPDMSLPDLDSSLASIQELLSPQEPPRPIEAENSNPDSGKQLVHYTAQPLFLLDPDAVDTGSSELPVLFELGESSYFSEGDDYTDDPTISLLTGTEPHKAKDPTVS

HSE-driven firefly luciferase reporter activity of HSF1β in Hsf1.2−/− iMEFs co-transfected with HSF2β, MG132 at 2.5 µM: 3 fold
Substance: HSF2β (heat shock factor 2, short β splicing isoform) (natural protein)

Source: PMC3572029
